Data from the supplement of paper PMC9233669.
Variants at the floor of the assay were thinned out.

Legend:
biotinyl-Leu-oxazolone = test: self-aminoacylation, catalytic enhancement (BLO) (fold over background); higher = more active; k-Seq, kA / k0A0; sequences stand for … in GGGAAUGGAUCCACAUCUACGAAUUC…UUCACUGCAGACUUGACGAAGCUG
Outline: (§1)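 The uncatalyzed rate is the low-activity peak of a bimodal Gaussian fit, and catalytic enhancement is median kA divided by it. The kA values came from pseudo-first-order fits, with 1000 bootstraps, of per-sequence fraction reacted measured by streptavidin capture, triplicate qPCR and Illumina sequencing. Mutagenized RNA pools with a 21-nt variable region (0.43 μM) were reacted with each biotinyl-aminoacyl-oxazolone at 2–1250 μM in 50 μL HEPES/NaCl/KCl/MgCl2/CaCl2 buffer with 5% acetonitrile, pH 6.9–7.0, for 90 minutes at room temperature.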

biotinyl-Phe-oxazolone = test: self-aminoacylation, catalytic enhancement (BFO) (fold over background); higher = more active; k-Seq, kA / k0A0; sequences stand for … in GGGAAUGGAUCCACAUCUACGAAUUC…UUCACUGCAGACUUGACGAAGCUG
Outline: as §1

biotinyl-Trp-oxazolone = test: self-aminoacylation, catalytic enhancement (BWO) (fold over background); higher = more active; k-Seq, kA / k0A0; sequences stand for … in GGGAAUGGAUCCACAUCUACGAAUUC…UUCACUGCAGACUUGACGAAGCUG
Outline: as §1

biotinyl-Ile-oxazolone = test: self-aminoacylation, catalytic enhancement (BIO) (fold over background); higher = more active; k-Seq, kA / k0A0; sequences stand for … in GGGAAUGGAUCCACAUCUACGAAUUC…UUCACUGCAGACUUGACGAAGCUG
Outline: as §1

biotinyl-Val-oxazolone = test: self-aminoacylation, catalytic enhancement (BVO) (fold over background); higher = more active; k-Seq, kA / k0A0; sequences stand for … in GGGAAUGGAUCCACAUCUACGAAUUC…UUCACUGCAGACUUGACGAAGCUG
Outline: as §1

biotinyl-Met-oxazolone = test: self-aminoacylation, catalytic enhancement (BMO) (fold over background); higher = more active; k-Seq, kA / k0A0; sequences stand for … in GGGAAUGGAUCCACAUCUACGAAUUC…UUCACUGCAGACUUGACGAAGCUG
Outline: as §1

Sequence	self-aminoacylation (biotinyl-Leu-oxazolone)	self-aminoacylation (biotinyl-Phe-oxazolone)	self-aminoacylation (biotinyl-Trp-oxazolone)	self-aminoacylation (biotinyl-Ile-oxazolone)	self-aminoacylation (biotinyl-Val-oxazolone)	self-aminoacylation (biotinyl-Met-oxazolone)
AUCUCCCUGGUCAUCGAGUGA [Fam2.1 aminoacylation ribozyme variant]	9.06	27.2	10.2	4.57	4.7	9.05
AUGACACUGGUCAUCGAGUGA [Fam2.1 aminoacylation ribozyme variant]	6.42	25.8	6.47	3.42	3.05	5.48
AUGACCCUGGACAUCGAGUGA [Fam2.1 aminoacylation ribozyme variant]	3.95	15.9	5.26	2.27	2.11	5.12
AUGACCCUGGUCACCGAGUGA [Fam2.1 aminoacylation ribozyme variant]	11.7	45.5	9.23	3.68	5.03	10.5
AUGACCCUGGUCAUCCAGUGA [Fam2.1 aminoacylation ribozyme variant]	7.02	38.6	7.7	3.84	3.16	6.57
AUGACCCUGGUCAUCGAGUAA [Fam2.1 aminoacylation ribozyme variant]	10.2	31.5	8.31	3.71	3.51	10.1
AUGACCCUGGUCAUCGAGUGU [Fam2.1 aminoacylation ribozyme variant]	85.3	692	64.9	20.6	23.7	89.5
AUGACCCUGGUCCUCGAGUGA [Fam2.1 aminoacylation ribozyme variant]	3.2	22.1	3.81	1.88	1.77	3.2
AUGACCCUGGUUAUCGAGUGA [Fam2.1 aminoacylation ribozyme variant]	7.14	15.5	8.52	3.39	3.36	6.78
AUGACCGUGGUCAUCGAGUGA [Fam2.1 aminoacylation ribozyme variant]	7.27	39.7	7.37	3.34	3.22	6.71
AUGCAACUAGGUCAUCGGGUG [Fam2.2 aminoacylation ribozyme variant]	9.82	56.2	8.26	6.38	5.58	8.13
AUGCACAUAGGUCAUCGGGUG [Fam2.2 aminoacylation ribozyme variant]	10.2	73.3	10.4	6.5	6.08	10.5
AUGCACCUAGGUCAUCGGGCG [Fam2.2 aminoacylation ribozyme variant]	3.22	13.5	2.53	2.08	2.47	2.37
AUGCACCUAGGUCAUUGGGUG [Fam2.2 aminoacylation ribozyme variant]	2.53	16.6	2.72	2.33	2.16	2.3
AUGCACCUAGGUCUUCGGGUG [Fam2.2 aminoacylation ribozyme variant]	4.14	40	5.59	3.64	4.2	4.93
AUGCACCUAGGUUAUCGGGUG [Fam2.2 aminoacylation ribozyme variant]	4.46	32.7	4.81	3.4	3.11	3.37
AUGCAGCUAGGUCAUCGGGUG [Fam2.2 aminoacylation ribozyme variant]	4.37	24.9	3.92	2.95	3.61	3.73
AUGCUUGCUAAUAGUCGCAAG [Fam3.1 aminoacylation ribozyme variant]	1.33	3.19	1.99	1.81	1.32	1.61
AUGUUUGAUAAUAGUCGCAAG [Fam3.1 aminoacylation ribozyme variant]	1.09	1.59	1.45	1.65	1.17	1.35
AUGUUUGCUAACAGUCGCAAG [Fam3.1 aminoacylation ribozyme variant]	1.49	5.92	3.34	1.59	1.43	1.61
AUGUUUGCUAAUAGUCGCUAG [Fam3.1 aminoacylation ribozyme variant]	1.06	1.82	1.28	1.19	1.08	1.06
AUUAACCUACGUCAUCGGGUG [Fam2.2 aminoacylation ribozyme variant]	8.3	47.5	5.8	3.99	3.84	6.52
AUUAACCUAGGGCAUCGGGUG [Fam2.2 aminoacylation ribozyme variant]	3.09	14.1	2.76	2.45	2.15	2.86
AUUAACCUAGGUCAUCCGGUG [Fam2.2 aminoacylation ribozyme variant]	4.91	29.5	5.68	3.59	3.29	5.02
AUUAACCUAGGUCAUCGGCUG [Fam2.2 aminoacylation ribozyme variant]	1.35	4.37	1.57	1.35	1.59	1.49
AUUAACCUAGGUCAUCGGGAG [Fam2.2 aminoacylation ribozyme variant]	1.34	1.18	0.979	1.14	1.14	0.94

Sequence	self-aminoacylation (biotinyl-Leu-oxazolone)	self-aminoacylation (biotinyl-Phe-oxazolone)	self-aminoacylation (biotinyl-Trp-oxazolone)	self-aminoacylation (biotinyl-Ile-oxazolone)	self-aminoacylation (biotinyl-Val-oxazolone)	self-aminoacylation (biotinyl-Met-oxazolone)
AUUAACCUAGGUCCUCGGGUG [Fam2.2 aminoacylation ribozyme variant]	4.72	18	3.09	2.58	2.81	4.07
AUUAACCUAGGUUAUCGGGUG [Fam2.2 aminoacylation ribozyme variant]	3.46	17.9	2.84	2.5	2.19	3.1
AUUAACCUGCUCAUCGAGUGA [Fam2.1 aminoacylation ribozyme variant]	2.5	2.51	2.54	1.55	1.86	2.38
AUUAACCUGGUCAUCGAAUGA [Fam2.1 aminoacylation ribozyme variant]	1.09	0.933	0.742	1.07	1.07	0.959
AUUAACCUGGUCAUCGAGGGA [Fam2.1 aminoacylation ribozyme variant]	1.28	0.771	1.99	1.53	1.3	1.76
AUUAACCUGGUCAUCGAGUGG [Fam2.1 aminoacylation ribozyme variant]	2.11	2.19	2.03	1.25	1.2	1.63
AUUAACCUGGUCAUCGAGUGU [Fam2.1 aminoacylation ribozyme variant]	4.39	5.48	4.67	2.33	2.61	3.72
AUUAACCUGGUCAUCGAGUUA [Fam2.1 aminoacylation ribozyme variant]	1.06	0.827	0.836	1	1.02	1.34
AUUAACCUGGUCAUCGUGUGA [Fam2.1 aminoacylation ribozyme variant]	3.13	13.1	3.69	1.69	1.82	3.13
AUUAAGCUGGUCAUCGAGUGA [Fam2.1 aminoacylation ribozyme variant]	3.05	4.33	3.85	2.77	2.36	3.07
AUUACAAUGGUCAUCGAGUGA [Fam2.1 aminoacylation ribozyme variant]	6.42	16.6	7.87	3.7	3.54	6.47
AUUACACCGGUCAUCGAGUGA [Fam2.1 aminoacylation ribozyme variant]	6.36	29.4	5.95	2.95	2.96	5.76
AUUACACUGGACAUCGAGUGA [Fam2.1 aminoacylation ribozyme variant]	6.11	14.9	6.45	3.23	2.87	5.83
AUUACACUGGUCAGCGAGUGA [Fam2.1 aminoacylation ribozyme variant]	5.37	16.9	5.83	3.4	2.58	4.36
AUUACACUGGUCAUCGAGCGA [Fam2.1 aminoacylation ribozyme variant]	2.29	0.889	1.8	1.64	1.96	2.15
AUUACACUGGUCAUCGAGUCA [Fam2.1 aminoacylation ribozyme variant]	0.857	0.583	0.497	0.877	0.83	0.865
AUUACACUGGUCAUUGAGUGA [Fam2.1 aminoacylation ribozyme variant]	6.76	35	7.64	3.39	3.28	6.48
AUUACAGUGGUCAUCGAGUGA [Fam2.1 aminoacylation ribozyme variant]	1.44	1.09	1.78	1.75	1.76	1.87
AUUACCAGGGUCAUCGAGUGA [Fam2.1 aminoacylation ribozyme variant]	5.09	17.2	5.56	3.1	3.1	4.43
AUUACCAUAGUCAUCGAGUGA [Fam2.1 aminoacylation ribozyme variant]	7.53	43.4	9.11	4.32	3.89	7.07
AUUACCAUGGUCAGCGAGUGA [Fam2.1 aminoacylation ribozyme variant]	6.19	30.7	6.31	3.11	3.19	5.49
AUUACCAUGGUCAUCGAGAGA [Fam2.1 aminoacylation ribozyme variant]	0.937	0.497	1.38	0.797	0.864	0.859
AUUACCAUGGUCAUCGAGUAA [Fam2.1 aminoacylation ribozyme variant]	1.33	1.09	1.28	1.41	1.42	1.7
AUUACCAUGGUCAUCGAGUGC [Fam2.1 aminoacylation ribozyme variant]	1.47	0.948	1.35	1.12	1.17	1.38
AUUACCAUGGUCAUCGAGUGG [Fam2.1 aminoacylation ribozyme variant]	3.14	2.67	2.18	1.72	1.63	2.45
